According to patent US20190233808:

Experiments:
[1] = target: FITC-labeled bovine type-1 collagen (Chondrex, Cat# 4001), P02453
[2] = target: T1, synthetic MMP1 substrate MCA-Lys-Pro-Leu-Gly-Leu-DPA-Ala-Arg-NH2 (R&D Systems, Cat# ES010)
T1 chain: KPLGLXAR

Chain of FITC-labeled bovine type-1 collagen (Chondrex, Cat# 4001), P02453 (P02453 162-1217, chain 1 of 2): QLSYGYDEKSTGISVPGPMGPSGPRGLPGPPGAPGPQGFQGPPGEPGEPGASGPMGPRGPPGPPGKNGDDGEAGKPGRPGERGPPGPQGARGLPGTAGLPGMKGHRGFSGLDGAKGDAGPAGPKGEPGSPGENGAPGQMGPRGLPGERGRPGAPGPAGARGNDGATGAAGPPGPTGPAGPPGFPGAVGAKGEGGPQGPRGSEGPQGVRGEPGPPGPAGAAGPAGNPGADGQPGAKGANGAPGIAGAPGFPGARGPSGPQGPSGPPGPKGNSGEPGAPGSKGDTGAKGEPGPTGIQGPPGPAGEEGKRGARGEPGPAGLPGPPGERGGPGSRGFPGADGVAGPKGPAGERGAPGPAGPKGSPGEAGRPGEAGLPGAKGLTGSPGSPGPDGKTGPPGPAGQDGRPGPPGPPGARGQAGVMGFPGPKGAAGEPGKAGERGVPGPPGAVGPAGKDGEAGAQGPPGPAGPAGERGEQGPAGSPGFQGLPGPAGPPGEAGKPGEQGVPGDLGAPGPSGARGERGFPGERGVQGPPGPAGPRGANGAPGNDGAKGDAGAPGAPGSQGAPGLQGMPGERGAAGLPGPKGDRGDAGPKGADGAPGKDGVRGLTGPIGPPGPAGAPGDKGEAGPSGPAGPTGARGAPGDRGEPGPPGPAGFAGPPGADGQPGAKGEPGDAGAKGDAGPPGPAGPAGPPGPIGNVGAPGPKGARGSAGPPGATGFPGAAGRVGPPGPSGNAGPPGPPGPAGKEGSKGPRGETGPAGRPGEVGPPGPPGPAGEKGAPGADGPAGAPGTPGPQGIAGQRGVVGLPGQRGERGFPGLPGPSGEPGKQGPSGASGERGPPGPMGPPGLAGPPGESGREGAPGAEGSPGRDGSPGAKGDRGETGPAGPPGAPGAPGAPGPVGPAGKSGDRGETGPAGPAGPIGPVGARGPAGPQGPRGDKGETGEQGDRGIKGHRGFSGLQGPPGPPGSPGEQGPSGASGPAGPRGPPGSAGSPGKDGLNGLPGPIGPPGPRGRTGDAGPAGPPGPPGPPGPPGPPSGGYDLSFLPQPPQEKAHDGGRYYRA
Chain of FITC-labeled bovine type-1 collagen (Chondrex, Cat# 4001), P02453 (P02453 other isoform, or with tags, fused parts or gaps, chain 2 of 2): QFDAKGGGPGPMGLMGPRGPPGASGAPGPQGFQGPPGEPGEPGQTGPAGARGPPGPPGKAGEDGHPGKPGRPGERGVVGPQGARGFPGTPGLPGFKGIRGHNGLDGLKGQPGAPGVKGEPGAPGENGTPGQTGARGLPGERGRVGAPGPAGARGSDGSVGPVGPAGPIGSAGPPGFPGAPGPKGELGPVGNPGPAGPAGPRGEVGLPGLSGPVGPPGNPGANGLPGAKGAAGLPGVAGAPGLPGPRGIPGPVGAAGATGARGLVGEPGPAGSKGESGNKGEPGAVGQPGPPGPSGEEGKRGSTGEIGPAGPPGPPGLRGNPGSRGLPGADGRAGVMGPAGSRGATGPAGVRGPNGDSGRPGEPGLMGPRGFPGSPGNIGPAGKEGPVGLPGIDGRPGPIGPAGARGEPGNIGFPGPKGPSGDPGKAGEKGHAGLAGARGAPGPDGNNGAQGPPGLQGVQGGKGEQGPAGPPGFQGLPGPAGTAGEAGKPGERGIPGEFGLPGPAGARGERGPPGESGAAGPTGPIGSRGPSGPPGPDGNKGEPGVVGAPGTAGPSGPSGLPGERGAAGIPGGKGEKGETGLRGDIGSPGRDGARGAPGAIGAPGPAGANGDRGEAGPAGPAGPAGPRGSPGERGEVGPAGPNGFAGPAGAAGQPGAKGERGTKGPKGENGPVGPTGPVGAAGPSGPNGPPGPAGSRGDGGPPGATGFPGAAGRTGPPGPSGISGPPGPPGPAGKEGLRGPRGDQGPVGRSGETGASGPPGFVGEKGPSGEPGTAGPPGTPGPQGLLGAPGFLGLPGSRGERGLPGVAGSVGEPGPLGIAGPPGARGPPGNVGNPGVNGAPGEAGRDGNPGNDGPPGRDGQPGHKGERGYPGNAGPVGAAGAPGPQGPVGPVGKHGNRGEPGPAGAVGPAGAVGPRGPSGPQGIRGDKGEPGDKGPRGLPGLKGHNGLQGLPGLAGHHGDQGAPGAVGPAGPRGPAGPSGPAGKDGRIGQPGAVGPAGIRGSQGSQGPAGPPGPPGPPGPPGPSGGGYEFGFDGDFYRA

B1: trypsin-activated MMP1 (43 kD active human matrix metalloproteinase-1) (protein)
chain: VLTEGNPRWEQTHLTYRIENYTPDLPRADVDHAIEKAFQLWSNVTPLTFTKVSEGQADIMISFVRGDHRDNSPFDGPGGNLAHAFQPGPGIGGDAHFDEDERWTNNFREYNLHRVAAHELGHSLGLSHSTDIGALMYPSYTFSGDVQLAQDDIDGIQAIYGRSQNPVQPIGPQTPKACDSKLTFDAITTIRGEVMFFKDRFYMRTNPFYPEVELNFISVFWPQLPNGLEAAYEFADRDEVRFFKGNKYWAVQGQNVLHGYPKDIYSSFGFPRTVKHIDAALSEENTGKTYFFVANKYWRYDEYKRSMDPGYPKMIAHDFPGIGHKVDAVFMKDGFFYFFHGTRQYKFDPKTKRILTLQKANSWFNCRKN
collagen cleavage on SDS PAGE [1]: active MMP1 cleaves type-1 collagen into ¾ and ¼ fragments
kcat (weight-based collagen degradation assay) [1]: ~19 monomers per MMP1 per hour
kcat/MMP1/hr using 1 mg/ml concentration (+MMP1 for 1 hr) [1]: 0.5 /MMP1/hr
kcat/MMP1/hr using 1 mg/ml concentration (+MMP1 for 2 hr) [1]: 0.21 /MMP1/hr
kcat/MMP1/hr using 1 mg/ml concentration (+MMP1 for 3 hr) [1]: 0.19 /MMP1/hr
kcat/MMP1/hr using 1 mg/ml concentration (+MMP1 for 4 hr) [1]: 0.15 /MMP1/hr
kcat/MMP1/hr using 1 mg/ml concentration (+MMP1 for 5 hr) [1]: 0.14 /MMP1/hr
kcat/MMP1/hr using 1 mg/ml concentration (+MMP1 for 6 hr) [1]: 0.11 /MMP1/hr
kcat/MMP1/hr using 1 mg/ml concentration (+MMP1 for 7 hr) [1]: 0.1 /MMP1/hr
kcat/MMP1/hr using 1 mg/ml concentration (+MMP1 for 8 hr) [1]: 0.1 /MMP1/hr
kcat/MMP1/hr using 1 mg/ml concentration (+MMP1 for 9 hr) [1]: 0.09 /MMP1/hr
kcat/MMP1/hr using 1 mg/ml concentration (+MMP1 for 10 hr) [1]: 0.09 /MMP1/hr
kcat/MMP1/hr using 114.2 mg/ml concentration (+MMP1 for 1 hr) [1]: 58 /MMP1/hr
kcat/MMP1/hr using 114.2 mg/ml concentration (+MMP1 for 2 hr) [1]: 24 /MMP1/hr
kcat/MMP1/hr using 114.2 mg/ml concentration (+MMP1 for 3 hr) [1]: 22 /MMP1/hr
kcat/MMP1/hr using 114.2 mg/ml concentration (+MMP1 for 4 hr) [1]: 17 /MMP1/hr
kcat/MMP1/hr using 114.2 mg/ml concentration (+MMP1 for 5 hr) [1]: 16 /MMP1/hr
kcat/MMP1/hr using 114.2 mg/ml concentration (+MMP1 for 6 hr) [1]: 13 /MMP1/hr
kcat/MMP1/hr using 114.2 mg/ml concentration (+MMP1 for 7 hr) [1]: 11 /MMP1/hr
kcat/MMP1/hr using 114.2 mg/ml concentration (+MMP1 for 8 hr) [1]: 11 /MMP1/hr
kcat/MMP1/hr using 114.2 mg/ml concentration (+MMP1 for 9 hr) [1]: 10 /MMP1/hr
kcat/MMP1/hr using 114.2 mg/ml concentration (+MMP1 for 10 hr) [1]: 10 /MMP1/hr
reaction rate k (RFU of degraded substrate by 0.05 µg MMP1) [2]: k=0.26±0.02 RFU/min
specific activity (RFU) [2]: k/0.05=5.2 RFU/min/µg
specific activity (fluorogenic peptide substrate, 37° C.) [2]: ~999 pmol/min/µg

B2: catalytically inactive mutant MMP1 (E219Q) (protein)
chain: VLTEGNPRWEQTHLTYRIENYTPDLPRADVDHAIEKAFQLWSNVTPLTFTKVSEGQADIMISFVRGDHRDNSPFDGPGGNLAHAFQPGPGIGGDAHFDEDERWTNNFREYNLHRVAAHQLGHSLGLSHSTDIGALMYPSYTFSGDVQLAQDDIDGIQAIYGRSQNPVQPIGPQTPKACDSKLTFDAITTIRGEVMFFKDRFYMRTNPFYPEVELNFISVFWPQLPNGLEAAYEFADRDEVRFFKGNKYWAVQGQNVLHGYPKDIYSSFGFPRTVKHIDAALSEENTGKTYFFVANKYWRYDEYKRSMDPGYPKMIAHDFPGIGHKVDAVFMKDGFFYFFHGTRQYKFDPKTKRILTLQKANSWFNCRKN
collagen degradation on SDS PAGE [1]: did not show degradation of type-1 collagen
